Test results published in IntAct's records for PubMed 20696398.

B1: Vacuolar protein sorting-associated protein VTA1 (Saccharomyces cerevisiae), Q06263 (parent)
chain: MASNAARVVATAKDFDKVGLGIIGYYLQLYAVELILSEEDRSQEMTALATELLDTIEAFKKEIGGESEAEDSDKSLHVMNTLIHDQEKAKIYMLNFTMSLYNEKLKQLKDGPWDVMLKRSLWCCIDLFSCILHLWKENISETSTNSLQKRIKYCKIYLSKLAKGEIGSSDEKTLDYADFADDSEEIKDEDVDHQTSDLENNNNDKVEGLAPKDQTTSYEPVDEVPEFIDDADSVNEEEQTVDKNEDAITKDEQQVVKKEVDLTRPSAPSEPAAAEHKSYTKDELTKIMDRASKIEQIQKLAKYAISALNYEDLPTAKDELTKALDLLNSI
partner: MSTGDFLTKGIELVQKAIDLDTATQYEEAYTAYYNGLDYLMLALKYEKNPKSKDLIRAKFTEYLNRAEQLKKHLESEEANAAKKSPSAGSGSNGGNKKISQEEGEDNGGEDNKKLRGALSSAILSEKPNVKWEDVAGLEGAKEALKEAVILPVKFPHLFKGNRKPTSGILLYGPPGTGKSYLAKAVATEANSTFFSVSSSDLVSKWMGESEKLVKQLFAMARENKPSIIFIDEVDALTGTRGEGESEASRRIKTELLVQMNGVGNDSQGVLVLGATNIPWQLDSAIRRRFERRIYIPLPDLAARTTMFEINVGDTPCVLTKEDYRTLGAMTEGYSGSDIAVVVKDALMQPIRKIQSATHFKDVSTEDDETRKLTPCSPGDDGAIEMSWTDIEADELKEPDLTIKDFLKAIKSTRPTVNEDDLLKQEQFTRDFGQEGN
B2: Vacuolar protein sorting-associated protein 4 (Saccharomyces cerevisiae), P52917 (parent)
chain: B1 partner
partner: B1 chain

Variants of: B1
Conditions: with vps4_yeast VPS4, P52917

Variant	effect of a mutation on the interaction
MASNAARVVATAKDFDKVGLGIIGYYLQLYAVELILSEEDRSQEMTALATELLDTIEAFKKEIGGESEAEDSDKSLHVMNTLIHDQEKAKIYMLNFTMSLYNEKLKQLKDGPWDVMLKRSLWCCIDLFSCILHLWKENISETSTNSLQKRIKYCKIYLSKLAKGEIGSSDEKTLDYADFADDSEEIKDEDVDHQTSDLENNNNDKVEGLAPKDQTTSYEPVDEVPEFIDDADSVNEEEQTVDKNEDAITKDEQQVVKKEVDLTRPSAPSEPAAAEHKSYTKDELTKIMDRASKIEQIQKLAKYAISALNYEALPTAKDELTKALDLLNSI [D312A]	decreasing interaction
MASNAARVVATAKDFDKVGLGIIGYYLQLYAVELILSEEDRSQEMTALATELLDTIEAFKKEIGGESEAEDSDKSLHVMNTLIHDQEKAKIYMLNFTMSLYNEKLKQLKDGPWDVMLKRSLWCCIDLFSCILHLWKENISETSTNSLQKRIKYCKIYLSKLAKGEIGSSDEKTLDYADFADDSEEIKDEDVDHQTSDLENNNNDKVEGLAPKDQTTSYEPVDEVPEFIDDADSVNEEEQTVDKNEDAITKDEQQVVKKEVDLTRPSAPSEPAAAEHKSYTKDELTKIMDRASKIEQIQKLAKYAIRALNYEDLPTAKDELTKALDLLNSI [S306R]	decreasing interaction
MASNAARVVATAKDFDKVGLGIIGYYLQLYAVELILSEEDRSQEMTALATELLDTIEAFKKEIGGESEAEDSDKSLHVMNTLIHDQEKAKIYMLNFTMSLYNEKLKQLKDGPWDVMLKRSLWCCIDLFSCILHLWKENISETSTNSLQKRIKYCKIYLSKLAKGEIGSSDEKTLDYADFADDSEEIKDEDVDHQTSDLENNNNDKVEGLAPKDQTTSYEPVDEVPEFIDDADSVNEEEQTVDKNEDAITKDEQQVVKKEVDLTRPSAPSEPAAAEHKSYTKDELTKIMDRASKIEQIQKLAKYAISALNYEDLPRAKDELTKALDLLNSI [T315R]	decreasing interaction

Now from value to variant:

effect of a mutation on the interaction	Variant
disrupting interaction	MASNAARVVATAKDFDKVGLGIIGYYLQLYAVELILSEEDRSQEMTALATELLDTIEAFKKEIGGESEAEDSDKSLHVMNTLIHDQEKAKIYMLNFTMSLYNEKLKQLKDGPWDVMLKRSLWCCIDLFSCILHLWKENISETSTNSLQKRIKYCKIYLSKLAKGEIGSSDEKTLDYADFADDSEEIKDEDVDHQTSDLENNNNDKVEGLAPKDQTTSYEPVDEVPEFIDDADSVNEEEQTVDKNEDAITKDEQQVVKKEVDLTRPSAPSEPAAAEHKSYTKDELTKIMDRASKIEQIQKLAKYAISDLNYEDLPTAKDELTKALDLLNSI [A307D]
disrupting interaction	MASNAARVVATAKDFDKVGLGIIGYYLQLYAVELILSEEDRSQEMTALATELLDTIEAFKKEIGGESEAEDSDKSLHVMNTLIHDQEKAKIYMLNFTMSLYNEKLKQLKDGPWDVMLKRSLWCCIDLFSCILHLWKENISETSTNSLQKRIKYCKIYLSKLAKGEIGSSDEKTLDYADFADDSEEIKDEDVDHQTSDLENNNNDKVEGLAPKDQTTSYEPVDEVPEFIDDADSVNEEEQTVDKNEDAITKDEQQVVKKEVDLTRPSAPSEPAAAEHKSYTKDELTKIMDRASKIEQIQKLAKAAISALNYEDLPTAKDELTKALDLLNSI [Y303A]

Variants of: B2
Conditions: with vta1_yeast VTA1, Q06263

effect of a mutation on the interaction	Variant
decreasing interaction	MSTGDFLTKGIELVQKAIDLDTATQYEEAYTAYYNGLDYLMLALKYEKNPKSKDLIRAKFTEYLNRAEQLKKHLESEEANAAKKSPSAGSGSNGGNKKISQEEGEDNGGEDNKKLRGALSSAILSEKPNVKWEDVAGLEGAKEALKEAVILPVKFPHLFKGNRKPTSGILLYGPPGTGKSYLAKAVATEANSTFFSVSSSDLVSKWMGESEKLVKQLFAMARENKPSIIFIDEVDALTGTRGEGESEASRRIKTELLVQMNGVGNDSQGVLVLGATNIPWQLDSAIRRRFERRIYIPLPDLAARTTMFEINVGDTPCVLTKEDYRTLGAMTEGYSGSDIAVVVKDALMQPIRKIQSATDFKDVSTEDDETRKLTPCSPGDDGAIEMSWTDIEADELKEPDLTIKDFLKAIKSTRPTVNEDDLLKQEQFTRDFGQEGN [H359D]
